{"source": "patent US7977317B2", "about": "“Compositions and methods for modulating blood-brain barrier transport” (Raptor Pharmaceutical Inc., priority 2001, dated 2011)", "key": {"Megalin": {"molecular_target": "Megalin (Homo sapiens, UniProt P98164)", "conditions": "Tables 1-3; cited from earlier work"}, "LRP1B": {"test_system": "LRP1B", "experiment": "RT-PCR after p97 and RAP treatments in U-87 cells: LRP1B", "assay_type": "cell-based, human", "conditions": "RT-PCR", "experimental": "FIG. 34. Effect of p97 and RAP treatments in U-87 cells. A. Cells (2×10^5) were plated onto six-multiwell microplates and grown at 37° C. under 5% CO2 with optimal culture medium supplemented with serum for 4 days. Treatment was performed in serum free medium for 72 hours. RNA isolation and RT-PCR were performed as described in the Examples. B. LRP/LRP1B was immunodetected in cells lysates as described in the Examples. […] (N=2 for p97 treatment), (n=1 for RAP treatment)\nFIG. 35. Effect of p97 and RAP treatments in U-87 cells (RT-PCR). Cells (2×10^5) were plated onto six-multiwell microplates and grown at 37° C. under 5% CO2 with optimal culture medium supplemented with serum for 4 days. Treatment was performed in serum free medium for 72 hours. RNA isolation and RT-PCR were performed as described in the Examples. The amplified PCR products were electrophoresed on a 2% agarose gel and visualized under ultraviolet light. (n=2 for p97), (n=1 for RAP)\nRNA extraction. Cells in six-wells plate or in 75 cm^2 plastic tissue culture flasks were grown at 37° C. under 5% CO2 with optimal culture medium to 80-90% confluence. Total cellular RNA was preserved in Trizol (Gibco BRL, Burlington, ON). The solution are frozen at −80° C. until extraction. The solution was defroze and mixed with 5:1 chloroform for 3 minutes at room temperature. The suspension was centrifugated at 12000 g at 4° C. […]"}, "LDL-R": {"molecular_target": "LDL-R (Homo sapiens, UniProt P01130)", "conditions": "Tables 1-3; cited from earlier work"}, "BBCEC monolayers": {"test_system": "BBCEC monolayers", "experiment": "Transcytosis across BBCEC monolayers (in vitro BBB model)", "assay_type": "cell-based, bovine", "description": "FIG. 10 assesses the ability of several agents to interfere with p97 transyctosis. FIG. 10a, transcytosis of I125-P97 was compared in the presence of cold p97 (5 micromolar), Lf (5 micromolar), and Tf (5 micromolar). […] FIG. 10c, RAP, a known poly-peptide inhibitor of the LDL-Receptor family was applied to the cells (25 micrograms/ml).\nFIG. 11 examines the accumulation and transcytosis of p97. FIG. 11a, of [^125I]-p97, [^125I]-BSA and [^125I]-holo-transferrin one hour after i.v. injection. The radioactivity in brain was compared between the three compounds. (n=3); FIG. 11b, Accumulation of p97 and transferrin into the mouse brain parenchyma. In situ brain perfusion was performed with human [^125I]-p97 or [^125I]-holo-transferrin at a final concentration of 10 nM via a catheter inserted in the right common carotid artery. The volume of distribution (VD) of [^125I]-proteins were obtained in the whole brain homogenate (white bars), in brain capillaries (solid bars) and in brain parenchyma (hatched bars) after isolation of the right hemisphere and capillary depletion. Results were obtained for p97 (n=10) and for holo-transferrin (n=6); FIG. 11c, Transcytosis of p97 across BBCEC monolayers. Transcytosis experiments were performed 37° C. (open circles) and 4° C. (closed circles) with BBCEC monolayers. [^125I]-p97 (1 mg/ml) was added to the upper side of the cell-covered filter. One representative experiment is shown (n=4); FIG. 11d, Preferential transport of p97 across the BBCEC monolayers. Apical-to-basal and basal-to-apical transport of [^125I]-p97 (25 nM) was measured for 2 hrs at 37° C. At the end of the experiment, [^125I]-p97 was assessed in the lower or upper chambers of each well by TCA precipitation (n=4).\nFIG. 13 illustrates the transcytosis and accumulation of p97 and transferrin in BBCEC monolayers. FIG. 13a, Transcytosis experiments were performed at 37° C. (solid bars) or 4° C. (white bars). [^125I]-p97 or bovine [^125I]-holo-transferrin (1 mg/ml) was added to the upper side of the cell-covered filter. At the end of the experiment, radiolabelled proteins were measured in the lower chamber of each well by TCA precipitation (n=4). Controls were also performed at 37° C. with denatured [^125I]-p97 or bovine [^125I]-holo-transferrin boiled for 30 min (grey bars) (n=2); FIG. 13b, Biospecific interaction analysis was performed with native or boiled p97 for the indicated times. MAb L235 (5 μg) was immobilized on a sensor chip (SM5) using standard procedures incorporating NHS, EDC and ethanolamine. Native and boiled p97 (5 to 30 min) diluted at 1 mg/ml in Ringer/Hepes was cooled and injected into the BIAcore. The surface plasmon resonance response obtained for native p97 and boiled p97 was plotted (in relative units (RU)) as a function of time; FIG. 13c, The accumulation of both proteins into BBEC cells were also measured. Briefly, after incubation at 37° C. (solid bars) or 4° C. (white bars) with either [^125I]-protein, cells were washed four times with cold PBS. Accumulation of both denatured proteins (grey bars) was also measured at 37° C. Filters were then removed, and the radioactivity associated with the cells was quantified (n=3).\nFIG. 14 illustrates the stability of p97 and integrity of the BBCEC monolayers following p97 transcytosis. FIG. 14a, Transcytosis experiments were performed at 37° C. and 4° C. by adding p97 (1 mg/ml) to the upper compartment. At the end of the experiment, 50 μl from each lower chamber was used for SDS-polyacrylamide gel electrophoresis. After electrophoresis, the gels were stained with Coomassie Blue. A standard curve was also made with known amounts of recombinant p97 (0-2 μg); FIG. 14b. The gels were dried and scanned to quantify the amount of intact p97 that crossed the BBCEC monolayers at 37° C. and 4° C. (n=3); FIG. 14c, Effect of p97 on sucrose permeability of BBCE cell monolayers co-cultured with astrocytes. […]"}, "VLDL-R": {"molecular_target": "VLDL-R (Homo sapiens, UniProt P98155)", "conditions": "Tables 1-3; cited from earlier work"}, "LRP": {"molecular_target": "LRP (Homo sapiens, UniProt Q07954)", "sequence (Q07954 20-4544)": "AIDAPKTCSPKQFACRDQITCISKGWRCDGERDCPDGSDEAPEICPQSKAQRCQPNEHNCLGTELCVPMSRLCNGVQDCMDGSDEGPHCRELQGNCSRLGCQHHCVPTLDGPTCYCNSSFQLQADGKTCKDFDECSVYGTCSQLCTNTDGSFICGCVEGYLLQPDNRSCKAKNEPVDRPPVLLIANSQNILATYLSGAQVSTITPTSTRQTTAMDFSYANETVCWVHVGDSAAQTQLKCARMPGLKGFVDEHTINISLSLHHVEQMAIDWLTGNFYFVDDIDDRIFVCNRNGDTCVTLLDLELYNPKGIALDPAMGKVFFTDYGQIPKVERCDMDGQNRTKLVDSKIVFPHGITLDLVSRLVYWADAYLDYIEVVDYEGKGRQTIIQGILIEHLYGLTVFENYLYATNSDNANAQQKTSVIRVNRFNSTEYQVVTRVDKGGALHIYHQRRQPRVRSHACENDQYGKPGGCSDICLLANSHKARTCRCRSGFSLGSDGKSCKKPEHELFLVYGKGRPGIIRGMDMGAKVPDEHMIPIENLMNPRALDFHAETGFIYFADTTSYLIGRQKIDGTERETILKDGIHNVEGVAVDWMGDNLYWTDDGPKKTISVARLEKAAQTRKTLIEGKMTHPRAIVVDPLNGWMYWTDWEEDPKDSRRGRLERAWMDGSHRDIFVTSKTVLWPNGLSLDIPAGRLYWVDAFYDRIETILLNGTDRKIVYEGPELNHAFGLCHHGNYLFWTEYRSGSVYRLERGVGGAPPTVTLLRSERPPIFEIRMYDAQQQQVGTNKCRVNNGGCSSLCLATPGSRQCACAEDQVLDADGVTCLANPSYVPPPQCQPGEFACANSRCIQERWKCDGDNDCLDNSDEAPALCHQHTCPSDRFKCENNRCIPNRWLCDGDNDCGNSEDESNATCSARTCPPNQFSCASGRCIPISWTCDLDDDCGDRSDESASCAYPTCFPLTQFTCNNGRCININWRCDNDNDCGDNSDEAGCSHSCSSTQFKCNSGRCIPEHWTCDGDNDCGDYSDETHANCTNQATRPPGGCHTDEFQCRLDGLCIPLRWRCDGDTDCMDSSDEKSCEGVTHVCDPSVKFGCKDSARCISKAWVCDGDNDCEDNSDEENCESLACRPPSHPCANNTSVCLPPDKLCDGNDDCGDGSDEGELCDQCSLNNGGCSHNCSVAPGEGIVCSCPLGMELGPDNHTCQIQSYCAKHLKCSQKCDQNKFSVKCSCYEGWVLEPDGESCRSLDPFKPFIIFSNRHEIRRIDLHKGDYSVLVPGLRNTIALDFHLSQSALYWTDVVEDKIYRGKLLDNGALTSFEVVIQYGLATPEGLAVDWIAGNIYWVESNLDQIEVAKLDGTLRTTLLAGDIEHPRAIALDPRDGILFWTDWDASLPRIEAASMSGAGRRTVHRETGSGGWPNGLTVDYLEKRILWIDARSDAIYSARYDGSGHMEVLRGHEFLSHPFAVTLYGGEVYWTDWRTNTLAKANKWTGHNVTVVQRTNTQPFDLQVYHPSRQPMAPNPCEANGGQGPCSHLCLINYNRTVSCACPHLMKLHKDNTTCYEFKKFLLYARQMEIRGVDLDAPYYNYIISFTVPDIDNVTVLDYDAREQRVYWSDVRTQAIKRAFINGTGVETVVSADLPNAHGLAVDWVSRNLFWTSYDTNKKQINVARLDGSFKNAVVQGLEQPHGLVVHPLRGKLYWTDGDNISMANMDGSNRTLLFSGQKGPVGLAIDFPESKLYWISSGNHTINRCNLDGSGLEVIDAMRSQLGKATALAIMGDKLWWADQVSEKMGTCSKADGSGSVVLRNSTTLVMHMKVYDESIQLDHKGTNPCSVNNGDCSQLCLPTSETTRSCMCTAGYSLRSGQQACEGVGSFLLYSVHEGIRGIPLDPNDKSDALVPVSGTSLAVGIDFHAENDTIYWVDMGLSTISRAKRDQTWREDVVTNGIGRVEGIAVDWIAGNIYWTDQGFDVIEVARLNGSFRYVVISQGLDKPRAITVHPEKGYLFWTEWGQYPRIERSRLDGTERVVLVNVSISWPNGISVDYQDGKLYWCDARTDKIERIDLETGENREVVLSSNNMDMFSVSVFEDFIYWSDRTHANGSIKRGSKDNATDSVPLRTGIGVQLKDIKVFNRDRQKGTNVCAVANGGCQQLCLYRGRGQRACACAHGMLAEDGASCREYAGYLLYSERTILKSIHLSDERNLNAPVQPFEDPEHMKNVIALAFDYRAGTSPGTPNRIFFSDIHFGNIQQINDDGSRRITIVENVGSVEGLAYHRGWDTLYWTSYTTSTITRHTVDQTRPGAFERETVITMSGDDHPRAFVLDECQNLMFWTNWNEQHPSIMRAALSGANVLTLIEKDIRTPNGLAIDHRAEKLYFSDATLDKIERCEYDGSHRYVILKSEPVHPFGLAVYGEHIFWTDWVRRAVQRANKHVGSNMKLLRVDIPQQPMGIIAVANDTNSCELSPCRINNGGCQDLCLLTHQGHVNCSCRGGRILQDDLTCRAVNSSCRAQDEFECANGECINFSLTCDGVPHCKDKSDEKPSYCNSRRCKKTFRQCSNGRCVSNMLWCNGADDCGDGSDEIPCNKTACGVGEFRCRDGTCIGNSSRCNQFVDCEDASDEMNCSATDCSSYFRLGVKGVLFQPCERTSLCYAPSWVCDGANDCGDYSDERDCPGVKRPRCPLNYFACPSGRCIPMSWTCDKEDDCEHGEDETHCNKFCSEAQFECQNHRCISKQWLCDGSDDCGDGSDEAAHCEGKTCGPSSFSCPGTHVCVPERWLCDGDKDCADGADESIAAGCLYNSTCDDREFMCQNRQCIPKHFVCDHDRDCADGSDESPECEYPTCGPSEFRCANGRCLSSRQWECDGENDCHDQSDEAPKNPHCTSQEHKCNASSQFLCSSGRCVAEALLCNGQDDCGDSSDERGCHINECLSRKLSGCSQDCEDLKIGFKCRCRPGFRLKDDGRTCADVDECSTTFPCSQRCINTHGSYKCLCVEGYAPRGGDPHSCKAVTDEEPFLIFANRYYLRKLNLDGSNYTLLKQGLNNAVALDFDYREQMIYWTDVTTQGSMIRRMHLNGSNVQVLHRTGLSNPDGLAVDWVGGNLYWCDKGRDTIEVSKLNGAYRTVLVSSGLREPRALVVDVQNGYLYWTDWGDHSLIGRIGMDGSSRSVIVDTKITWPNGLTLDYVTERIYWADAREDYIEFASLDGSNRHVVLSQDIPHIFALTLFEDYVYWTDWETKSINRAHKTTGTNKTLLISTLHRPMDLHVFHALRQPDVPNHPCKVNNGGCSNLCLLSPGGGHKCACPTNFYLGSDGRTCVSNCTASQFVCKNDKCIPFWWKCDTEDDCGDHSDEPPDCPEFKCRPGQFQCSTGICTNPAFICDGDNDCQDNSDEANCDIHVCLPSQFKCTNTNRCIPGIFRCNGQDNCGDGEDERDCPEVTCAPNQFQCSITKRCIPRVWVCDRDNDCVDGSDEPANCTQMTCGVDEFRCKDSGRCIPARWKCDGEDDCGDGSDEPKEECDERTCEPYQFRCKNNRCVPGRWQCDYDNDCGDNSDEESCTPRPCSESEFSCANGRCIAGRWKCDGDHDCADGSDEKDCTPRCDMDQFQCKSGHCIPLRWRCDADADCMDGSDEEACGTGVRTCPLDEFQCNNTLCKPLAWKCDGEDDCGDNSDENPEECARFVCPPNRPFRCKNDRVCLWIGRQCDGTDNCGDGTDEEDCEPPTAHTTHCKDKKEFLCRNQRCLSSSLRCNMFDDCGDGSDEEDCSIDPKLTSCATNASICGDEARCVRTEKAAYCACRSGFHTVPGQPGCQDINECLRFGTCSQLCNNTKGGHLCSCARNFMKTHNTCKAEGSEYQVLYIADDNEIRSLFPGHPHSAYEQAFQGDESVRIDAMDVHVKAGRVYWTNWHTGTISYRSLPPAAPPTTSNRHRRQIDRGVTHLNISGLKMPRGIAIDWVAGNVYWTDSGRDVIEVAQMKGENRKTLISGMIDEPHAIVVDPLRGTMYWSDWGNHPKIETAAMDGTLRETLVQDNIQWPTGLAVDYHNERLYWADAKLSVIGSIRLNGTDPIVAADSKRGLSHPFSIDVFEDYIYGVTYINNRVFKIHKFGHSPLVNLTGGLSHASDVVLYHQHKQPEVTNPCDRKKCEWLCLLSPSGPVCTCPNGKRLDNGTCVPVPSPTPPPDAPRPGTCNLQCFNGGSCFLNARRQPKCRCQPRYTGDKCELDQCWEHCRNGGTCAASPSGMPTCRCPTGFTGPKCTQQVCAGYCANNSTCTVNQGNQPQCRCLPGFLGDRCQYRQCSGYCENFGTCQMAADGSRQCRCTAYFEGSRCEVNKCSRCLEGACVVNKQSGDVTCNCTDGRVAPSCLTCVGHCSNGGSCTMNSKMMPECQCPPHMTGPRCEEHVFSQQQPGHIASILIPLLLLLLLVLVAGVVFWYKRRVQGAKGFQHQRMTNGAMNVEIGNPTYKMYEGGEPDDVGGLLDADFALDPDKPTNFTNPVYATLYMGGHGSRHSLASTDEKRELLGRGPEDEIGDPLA", "conditions": "Tables 1-3; cited from earlier work"}}}
{"substance": "RAP: receptor-associated protein, a protein chaperone that regulates LRP; polypeptide inhibitor of the LDL-Receptor family", "values": [{"measurement": "Binding to Megalin", "setting": "Megalin", "value": "Yes"}, {"measurement": "Effect of RAP on the p97 effect on receptor expression", "setting": "LRP1B", "value": "appears to antagonize the effect of p97"}, {"measurement": "Binding to LDL-R", "setting": "LDL-R", "value": "Yes"}, {"measurement": "Effect on transcytosis of p97", "setting": "BBCEC monolayers; RAP 25 micrograms/ml (FIG. 10c)", "value": "significantly inhibited"}, {"measurement": "Inhibition of p97 transcytosis by LRP ligands", "setting": "BBCEC monolayers; RAP (0.6 μM), BSA (5 μM), 2 h at 37° C. (FIG. 17A)", "value": "inhibition"}, {"measurement": "Reduction of the initial rate of [125I]-p97 transport across BBCEC monolayers", "setting": "BBCEC monolayers; recombinant RAP 25 μg/ml (FIG. 16b)", "value": "more than 50%"}, {"measurement": "Binding to VLDL-R", "setting": "VLDL-R", "value": "Yes"}, {"measurement": "Binding to LRP", "setting": "LRP", "value": "Yes"}]}
